How the values were obtained:
[1] = target: SlPYL1 E151D (tomato (Solanum lycopersicum)); assay: SEC; Superdex 30 Increase 3.2/300 column as printed; 50 ul with 60, 6 or 0.6 ug protein (48 to 0.48 uM injected); 30 mM Tris-HCl pH 7.5, 150 mM NaCl, 1 mM DTT; apo form, no ABA; refractive index detection
[2] = target: SlPYL1 wild type (tomato dimeric abscisic acid receptor PYL1) (tomato (Solanum lycopersicum)); assay: as above

| Substance | stoichiometry N [1] | stoichiometry N [2] |
| --- | --- | --- |
| SlPYL1 E151D (receptor) | 2 |  |
| SlPYL1 wild type (tomato dimeric abscisic acid receptor PYL1) |  | 2 |
